In data set [1] the target is T1, Aβ40 (Homo sapiens, UniProt P05067).
T1 construct: incubating fresh monomerized (non-aggregated) solutions of Aβ40
Type of data set: biochemical. The note with it: for effect on rate (kinetics) of Aβ aggregation: ThT assay monitored for three days of incubation; for effect on Aβ aggregation (ThT fluorescence): molar ratio of Aβ to peptide or peptide equivalent 1:2, 1:4, 1:6.5, SMOP BSA:KLVFF 1:500, three days, FIG. 2A.
Procedure: In addition, an indirect assay (ThT [Thioflavin T] assay) was performed as follows. […] The fluorescence is measured and correlated to presence of amyloid plaque formations. Agents which bind and inhibit amyloid plaque formation decrease fluorescence of ThT. The inhibitory activity of KLVFF (SEQ ID NO 1)-modified SMOPs on Aβ40 aggregation was determined in black 96-well flat-bottom plates by incubating fresh monomerized (non-aggregated) solutions of Aβ40 (33 micromolar (μM), 15 μl)with different preparations of the SMOPs (25 μl, Table 1) in PBS. PBS was added to reach a volume of 50 μl, giving a final concentration of 10 μM for Aβ40. […] The plates were sealed with aluminum foil and incubated while shaking at 750 rpm at 37° C. for 72 hours to induce aggregation. Following the incubation, a solution of ThT (24 μM, 150 μl) in glycine buffer (50 millimolar (mM), pH 8.5) was added to each well and the fluorescence of amyloid-bound ThT was immediately measured using a plate reader (Infinite M200, Tecan, Switzerland) at excitation and emission wavelengths of 430 and 492 nm, respectively. The ThT solution was freshly prepared by diluting a ThT stock solution (1 mM, in water) with glycine buffer (50 mM, pH 8.5). Experiments were performed in quadruplicate.
To evaluate the inhibitory effect of KLVFF (SEQ ID NO 1)-modified SMOPs on Aβ aggregation and kinetics, soluble Aβ40 (0.5 nanomol, nmol) was incubated in the absence and presence of different preparations of the SMOPs. Amyloid plaque formation was then monitored by a ThT assay for three days of incubation.

The target in the next data set is T2, FITC-Aβ40 (Homo sapiens, UniProt P05067).
T2 construct: incubated with soluble FITC-Aβ40
In words: Direct in vitro binding assay with FITC-Aβ40 (fluorescent microscopy, FACS). Conditions: soluble FITC-Aβ40 in PBS at 37° C., after extensive washing; fluorescent microscopy and FACS. Here is the method: Binding of KLVFF (SEQ ID NO 1)-modified SMOP to Aβ was assessed using a fluorescent modified Aβ known as FITC-Aβ40 (fluorescein isothiocyanate) in a direct in vitro assay. In order to confirm that the conjugated KLVFF (SEQ ID NO 1) fragments on SMOPs preserved their recognition capability to bind full length Aβ following the sonochemical process and SMOP generation, KLVFF (SEQ ID NO 1)-modified SMOPs were incubated with soluble FITC-Aβ40 (25 μ, 0.5 nanomolar, nM) in PBS at 37° C. for different periods under constant agitation (750 revolutions per minute (rpm)). At each time point, samples were diluted with cold PBS and the microspheres were washed twice with cold PBS. Ten thousand particles were then analyzed immediately by FACS.
As controls, proteinaceous SMOP without surface modification (prepared as in example 1A, without the addition of a KLVFF (SEQ ID NO 1) peptide) (naked BSA spheres) were prepared. FVKLF-modified SMOP was also prepared as a control, as in Example 1C.

For data set [2], the target named is T1, Aβ40. In words: TEM analysis of samples taken from the ThT assay. The note with it: 72 hour incubation. Type of data set: biochemical.
Data set [3] relates to murine microglia (BV-2) cells. The experiment in a line: Phagocytosis by murine microglia (BV-2) cells (confocal microscopy, SEM, FACS). It is filed as cell-based. Conditions: LPS-treated cells, 30 minutes exposure.
Another data set deals with PC12 cells. The experiment in a line: Reduction of Aβ-induced toxicity in PC12 cells (MTT assay). Type of data set: cell-based, rat. Conditions: for effect on toxicity of aggregated Aβ in PC12 cells (cell viability, MTT): agent:Aβ40 4:1 (2 nmol : 0.5 nmol), aged 48 hours, cells 24 hours, FIG. 2B. The method, then: Prior to the addition of the SMOPs or soluble peptides to the cells, the extent of Aβ40 aggregation in each sample was determined by ThT assay as described above. On the day of the experiment, the medium was replaced with fresh medium (50 μl) and the aged samples (50 μ) were then diluted by a factor of two in the medium. Control wells received PBS (50 μl) only. Cells were incubated for an additional 24 hours and cell viability was then determined by the MTT assay as described above. Each experiment was performed in quadruplicate and repeated three times.

A short description of data set [4]: Administration of SMOP to rats to demonstrate safety. Type of data set: in vivo. Conditions: intravenously via tail vein, from 100 μl to highest amount 200 µL, observed 2 weeks; BSA:KLVFF 1:500. Here is the method:
SMOPs modified with KLVFF (SEQ ID NO 1) (ratio of BSA:KLVFF (SEQ ID NO 1) of 1:500) were used in vivo for toxicological studies. Rats weighing about 250 g each were injected intravenously, via their tail vein, with increasing amounts of the SMOP starting from 100 μl and following an up-down protocol based on the outcome of the initial dose.

Square brackets hold non-standard residues; d marks the D form. Ends that are not written are not given here. Peptide text beside a SMILES is read from it. Nle = CCCC[C@H](N)C(=O)O

T1 sequence (P05067 672-711 limits assumed): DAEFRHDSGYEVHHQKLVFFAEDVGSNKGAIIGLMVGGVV
T2 sequence (P05067 672-711 limits assumed): as above

Turning to “FVKLF-modified SMOPs: SMOPs formed with scrambled peptide FVKLFC-NH2 (SEQ ID NO 4); comparator in in vitro studies”, in the data set with Aβ40 [1], the “effect on rate (kinetics) of Aβ aggregation” value is on record as “no or little effect” and the “effect on Aβ aggregation (ThT fluorescence)” value is recorded as “no or little effect”. Moreover, the “FITC-Aβ40 accumulated on the surface of the particles (fluorescent signal)” value with FITC-Aβ40 was “significantly lower amount of FITC-Aβ40 was accumulated”. In addition, the “formation of Aβ40 fibrils (TEM)” value with Aβ40 [2] was “no inhibitory effect”.
Regarding fucoidan, the “effect on uptake of aggregated FITC-Aβ by BV-2 cells” value in data set [3] is “reduced the uptake of the aggregated Aβ”.
As to KLVFF-NH2, the “effect on toxicity of aggregated Aβ in PC12 cells (cell viability, MTT)” value with PC12 cells is “little or no effect on toxicity”.
As for “KLVFF-modified SMOP: oil-filled spherical BSA particles with KLVFFC-NH2 (SEQ ID NO 3) attached via disulfide bonds, prepared by sonication”, in the data set with Aβ40 [1], the “effect on rate (kinetics) of Aβ aggregation” value is listed as “dramatically slowed the rate of Aβ aggregation” and the “effect on Aβ aggregation (ThT fluorescence)” value is listed as “significantly decreased the aggregation of Aβ in a dose-dependent manner”. In addition, the “FITC-Aβ40 accumulated on the surface of the particles (fluorescent signal)” value with FITC-Aβ40 is recorded as “intense fluorescent signals”. Also, the “formation of Aβ40 fibrils (TEM)” value with Aβ40 [2] was “completely arrests the formation of fibrils”. In data set [4], the “immediate toxicity in rats” value was “did not cause immediate toxicity”. Also, the “effect on toxicity of aggregated Aβ in PC12 cells (cell viability, MTT)” value in the data set with PC12 cells is on record as “significantly reduced”.
pertussis toxin [PTX]: the “effect on uptake of aggregated FITC-Aβ by BV-2 cells” value in data set [3] was “reduced the uptake of the aggregated Aβ”.
In the case of `CCCC[C@@H]1NC(=O)[C@@H](CC(C)C)NC(=O)[C@H](CCCCN)NC(=O)[C@@H](CO)NC(=O)[C@H](Cc2c[nH]cn2)NC(=O)[C@@H](Cc2c[nH]c3ccccc23)NC1=O` [[lJwHsK], Cyclo-D-leucine-L-noreucine-D-tryptophan-L-histidine-D-serine-L-lysine] (cyclo(K[dL][Nle][dW]H[dS])), the “effect on amyloid aggregation / formation (in words)” value on Aβ40 [1] is “drastic effect on amyloid aggregation”. Also, the “reduction of Aβ-induced toxicity in PC12 cells (cyclic peptide)” value with PC12 cells was “effective in reducing Aβ-induced toxicity”.

(Values after patent publication US9504759B2, “Surface modified proteinaceous spherical particles and uses thereof” (BAR-ILAN UNIVERSITY, priority 2011, dated 2016).)
